This is an account of results in publication PMC5777823 (eLife, 2017).

In this assay the target is T1, CENP-L:CENP-N^230-C complex (human, UniProt Q8N0S6 1-344; Q96H22 230-339).
T1 construct: CENP-L, human; CENP-N, human, residues 230 to the C-terminus of the 339-residue protein; Form used in SEC and ITC, named without GST; tag probably cleaved with 3C protease; also called CENP-LN^230-C; CENP-LN^230-C dimer; source: Tnao38 insect cells (baculovirus, co-expressed), purified (GSH-Sepharose, Superdex 200)
T1 sequence (Q8N0S6 whole entry, chain 1 of 2, the tested form may be a part): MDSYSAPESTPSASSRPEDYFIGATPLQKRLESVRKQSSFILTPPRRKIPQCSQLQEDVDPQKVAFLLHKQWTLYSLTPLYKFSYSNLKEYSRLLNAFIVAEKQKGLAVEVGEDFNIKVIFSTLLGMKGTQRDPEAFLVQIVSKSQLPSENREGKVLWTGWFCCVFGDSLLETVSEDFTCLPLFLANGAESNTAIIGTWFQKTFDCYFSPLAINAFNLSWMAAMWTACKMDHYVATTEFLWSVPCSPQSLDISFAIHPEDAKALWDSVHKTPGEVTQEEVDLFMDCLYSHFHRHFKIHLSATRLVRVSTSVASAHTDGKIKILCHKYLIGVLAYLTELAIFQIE
T1 sequence (Q96H22 230-339, chain 2 of 2): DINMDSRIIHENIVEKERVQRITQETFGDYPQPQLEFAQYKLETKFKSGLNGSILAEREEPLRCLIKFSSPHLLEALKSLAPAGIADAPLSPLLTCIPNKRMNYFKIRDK
The assay is described as follows: ITC; 25°C, ITC200; 20 mM HEPES pH 7.5, 2.5% glycerol, 300 mM NaCl, 1 mM TCEP; protein in the cell at 5–8 µM, ligand at 50–80 µM; single site binding model. The following applies: both partners purified. (ITC needs no label: the signal is the heat of the interaction.)

B1: CENP-C^225-364 (domain or fragment, human, UniProt Q03188 225-364, looked up)
chain: SDEEDKTSEGQERKPSGSSQNRIRDSEYEIQRQAKKSFSTLFLETVKRKSESSPIVRHAATAPPHSCPPDDTKLIEDEFIIDESDQSFASRSWITIPRKAGSLKQRTISPAESTALLQGRKSREKHHNILPKTLANDKHS
notes: pGEX-6P-2rbs; named without GST in the assays; source: bacteria, purified as described (Klare et al., 2015)
The term Kd denotes the equilibrium constant for the complex coming apart. Low readings indicate tighter binding, high ones weaker binding. In the case of B1, the Kd was determined as 1000 nM.
